One substance from patent US11160886B2, “Method for labeling of sensitive and thermosensitive targeting biomolecules with technetium based compounds” (BRACCO IMAGING SPA, priority 2016, dated 2021) can be followed below.

The subject of one data set is αvβ3 integrins. Format: in vivo, NOD/SCID mice. The settings on record: 120 min post injection. As to the method:
Before injection, ^99mTc complexes were purified using a reversed-phase C18 Sep-Pack cartridge to remove the excess of unlabeled ligands. After purification, the activity recovered was further diluted with PBS to obtain a final solution that is <0.5% in EtOH content. The RCP and the stability of the purified complexes were evaluated prior to in vivo administration and for the succeeding 18 h.
Distribution in Tumor Bearing Mice.
Tumor uptake studies were performed on complex 9 in NOD/SCID mice to determine the effective capability of the complex to detect in vivo endogenously expressed αvβ3 integrins. For induction of tumor xenografts, M21 (αvβ3 positive) and M21L (αvβ3 negative) cells were subcutaneously injected at a concentration of 5×10^6 cells/mouse and allowed to grow until tumor of 3 mm is palpable. The solution containing the purified radiolabeled peptide (15 μCi/200 μL) was injected intravenously into the tail vein. The animals (n=5) were sacrificed by cervical dislocation at 2 h post injection. Tumors and other tissues (blood, heart, lung, liver, kidneys, stomach, intestine, muscle) were removed, weighed, and the activity was counted in a Nal well counter. The results were expressed as the percentage of injected activity per gram of tissue (% IA/g) and tumor to organ ratios were calculated.

A short description of data set [1]: Challenge reactions (transchelation) with excess Cys, GSH or EDTA, RCP by HPLC. The settings on record: Cys 10 mM; for % RCP after incubation with excess Cys: 37° C. The class given is physicochemical. As for the experimental part: The transchelation studies were performed for some compounds monitoring by HPLC the radiochemical purity (RCP) of the complexes in presence of an excess of exchanging ligands over the time. The experiments were performed in triplicate.
Challenge experiments were carried out on the purified [^99mTc(N)(PNP3OH)]-labeled small size compounds (complex 1, complex 2, complex 9 and complex 10) using an excess of glutathione (GSH) or Cys. An aliquot (50 μl) of an aqueous stock solution of cysteine hydrochloride (10 mM; 1 mM) was added to a propylene test tube containing PB (250 μl, 0.2 M; pH 7.4), water (100 μl) and the selected [^99mTc(N)(PNP3OH)]-compound (100 μl). The mixture was vortexed and incubated at 37° C. for 24 h. A control reaction containing an equal volume of water, instead of cysteine hydrochloride, was studied in parallel. At 30 min, 1, 3 and 24 h, aliquots of the reaction mixture were withdrawn and analyzed by HPLC chromatography. A similar procedure was applied using GSH (50 μl, 10 mM) as challenge ligand.
For [^99mTc(N)(PNP3OH)(Cys-Gly-Lys-Gly-ApoMb)]^+ (“Cys-Gly-Lys-Gly” disclosed as SEQ ID NO: 1) additional experiments were conducted using EDTA (50 μl, 10 mM) as exchanging ligand.

Data set [2] in a line: Sera and homogenates stability. Format: in vitro ADME, human and rat. The settings on record: 37° C. As for the experimental part: Sera and Homogenates Stability.
The in vitro stability of complex 1, complex 2, complex 9 and complex 11 was evaluated by monitoring the RCP at different time points using the following procedures. In a propylene test tube 50 μl of purified [^99mTc(N)(PNP3OH)]-compound were added to: a) 450 μl of human serum, b) 450 μl of rat serum, c) 450 μl of homogenate of rat liver and d) 450 μl of homogenate of rat kidneys. The resulting mixture was incubated at 37° C. for 4 h.
The sample was loaded onto a cartridge, preconditioned with MeOH (1 ml) and equilibrated with water (1 ml), and rinsed with MeOH 5% (3 ml). The activity was eluted with a mixture of EtOH/saline 60% (1 ml). Each fraction was collected and the activity measured using a counter (Cobra II, Packard) to determinate the elution profile. 80% of the loaded activity was collected in the elution fraction. An aliquot of this solution (100 μl) was analyzed by HPLC to assess the degradation of the ^99mTc(N)-complexes (FIG. 11).

Data set [3] in a line: Stability in RPMI1640 cell culture medium. Format: physicochemical. As to the method: Before the cell experiments, the stability of the purified complex 9 in RPMI1640 medium was evaluated. The radiolabeled peptide was found stable. Data were compared with those of the ^99mTc-HYNIC-RGDfK labeled compound produced according to literature (Decristoforo C, Santos I, Pietzsch H J, Kuenstler J U, Duatti A, Smith C J, Rey A, Alberto R, Von Guggenberg E, Haubner R. Comparison of in vitro and in vivo properties of [99mTc]cRGD peptides labeled using different novel Tc-cores.Q J Nucl Med Mol Imaging. (2007), 51, 33-41).
Thus, to a glass test tube containing 990 μL of cell culture media was added 10 μL of a solution containing 10 μCi of complex 9. The mixture was vortexed and incubated at 37° C. for 2 h. At 30 min, 1 and 2 h, 100 μl of the reaction mixture were withdrawn and analyzed by HPLC chromatography. The radiochemical purity (RCP) of the complexes was found >90%.

Another data set in a line: Metabolites in the urine. The settings on record: urine at 2 and 4 h p.i. Format: in vivo, rats. As to the method: Metabolites in the Urine.
At 2 and 4 h p.i. the urine was collected directly from the bladder and analyzed by HPLC (FIG. 12).

Data set [4] is described as follows: Isomeric conversion over 24 h at 37° C. The class given is physicochemical. As for the experimental part:
Before the experiments for both complex 11 and complex 9, the two isomers were isolated by HPLC and their isomeric conversion was assessed over 24 h at 37° C.
In addition, a faster b vs a change was noticed. Therefore, for the radiolabeled peptide the mixture of the two isomeric forms in ratio 70/30 was directly utilized for receptor affinity studies.

For “[^99mTc(N)(PNP3OH)(Cys-cRGDfK)]^+ [Complex 9]”, in the data set with αvβ3 integrins (M21 (αvβ3 positive) tumor, mice), the “Tumor uptake: M21” value amounted to 4.38±0.69 % IA/g. In the data set with αvβ3 integrins (M21L (αvβ3 negative) tumor, mice), the “Tumor uptake: M21L” value worked out at 1.05 ± 0.62 % IA/g. Further, in the data set with αvβ3 integrins (tumor bearing mice), the “Biodistribution: Blood” value is reported as 0.03 ± 0.01 % IA/g, the “Biodistribution: Heart” value worked out at 0.44 ± 0.09 % IA/g, the “Biodistribution: Intestine” value is reported as 5.05 ± 1.24 % IA/g and the “Biodistribution: Kidney” value was 3.19 ± 0.18 % IA/g. Moreover, in the data set with αvβ3 integrins (tumor bearing mice), the “Biodistribution: Liver” value is 3.87 ± 0.81 % IA/g, the “Biodistribution: Lungs” value was determined as 1.22 ± 0.25 % IA/g, the “Biodistribution: Muscle” value is recorded as 0.20 ± 0.07 % IA/g and the “Biodistribution: Spleen” value is given as 1.51 ± 0.22 % IA/g. Moreover, in the data set with αvβ3 integrins (tumor bearing mice), the “Biodistribution: Stomach” value was determined as 0.96 ± 0.20 % IA/g, the M21/blood ratio stood at 146, the M21/liver ratio is reported as 1.13 and the M21/lung ratio is on record as 3.59. The M21/muscle ratio in the data set on αvβ3 integrins (tumor bearing mice) is 21.9. For the same substance, in data set [1] (3 h), the “% RCP after incubation with excess Cys” value amounted to 75.93%. Further, the “% RCP after incubation with excess Cys” value in data set [1] (24 h) is reported as 27.31%. For the same substance, in data set [1] (versus complex 1 and complex 11), the “Stability toward Cys transchelation relative to neutral complexes” value is reported as “higher stability toward Cys transchelation”. Also, the Sera stability result in data set [2] (human and rat sera, 3 h) is on record as “high sera stability”. For the same substance, the “In vitro stability (HPLC peaks versus control)” value in data set [2] (human serum, rat serum, rat kidneys homogenate, rat liver homogenate, 2 h) is listed as “remarkable in vitro stability”. Further, in data set [3], the “Stability in RPMI1640 medium” value is recorded as “found stable”. For the same substance, the “Radiochemical purity (RCP) in cell culture media” value in data set [3] (37° C., 30 min, 1 and 2 h) is listed as above 90%. Further, the “In vivo metabolism (urine HPLC, FIG. 12)” value in the data set “Metabolites in the urine” was “remained stably incorporated into the structure of the final complex”. Also, the “Isomeric conversion a vs b” value in data set [4] is “reversible a vs b and b vs a conversion”.
